Substitutions are numbered along the chain they refer to. Names may count otherwise. One block for each molecule: values may come before it. Square brackets hold non-standard residues; d marks the D form. Ends that are not written are not given here. Peptide text beside a SMILES is read from it. pS = N[C@@H](COP(=O)(O)O)C(=O)O
Tests used:
[1] = biological target: T1, SLF1^tBRCT (residues 1–199), WT (Homo sapiens, UniProt Q9BQI6); test: ITC of peptide binding to wild-type SLF1 tBRCT; conditions: 25 °C, 20 mM Tris pH 7.5, 200 mM NaCl; for Kd: 1.3 mM Rad18 peptide into 0.1 mM protein (BRCTide 6 mM into 0.2 mM), average ± SD of three independent repeats, ND = not detected
T1 construct: The coding region for SLF1^tBRCT (residues 1–199) was optimized for expression in E. coli; made in house; host or cells: E. coli BL21 Rosetta (DE3)
T1 sequence (Q9BQI6 1-199): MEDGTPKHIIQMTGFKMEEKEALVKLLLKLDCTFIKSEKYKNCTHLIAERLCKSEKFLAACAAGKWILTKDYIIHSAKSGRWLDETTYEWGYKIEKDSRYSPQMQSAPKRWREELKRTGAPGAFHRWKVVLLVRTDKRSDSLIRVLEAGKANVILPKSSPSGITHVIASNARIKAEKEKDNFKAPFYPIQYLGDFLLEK
Protocol: ITC experiments were carried out on a MicroCal ITC 200 instrument (Malvern) at 25 °C. Prior to the ITC experiments, SLF1^tBRCT was exchanged into a buffer containing 20 mM Tris (pH 7.5) and 200 mM sodium chloride and peptides (Sangon Biotech, Scilight biotechnology, Hefei Scierbio-Tech, Synpeptide) were dissolved in the same buffer. To characterize binding, a solution containing 1.3 mM Rad18 peptide or 6 mM BRCTide was injected into a 300-μl cell that stores 0.1 mM (for binding experiments with Rad18 peptides) or 0.2 mM (for the binding experiment with BRCTide) SLF1^tBRCT, 2 μl at a time. Data were analyzed with ORIGIN 7.0 (Originlab).

[2] = biological target: SLF1 tandem BRCT repeat (SLF1^tBRCT), residues 1-199, wild type (UniProt Q9BQI6); test: ITC; MicroCal ITC 200, 25 °C, 20 mM Tris (pH 7.5), 200 mM sodium chloride; 1.3 mM Rad18 peptide or 6 mM BRCTide injected into 0.1 mM (Rad18 peptides) or 0.2 mM (BRCTide) SLF1^tBRCT in the cell; three independent repeats
[3] = biological target: T2, SLF1 tandem BRCT repeat (SLF1^tBRCT), residues 1-199, wild type (UniProt Q9BQI6 1-199); test: as above; conditions: both partners purified
T2 construct: SMC5/6 localization factor 1 (SLF1), tandem BRCT repeat at the N-terminus, residues 1-199; coding region optimized for E. coli and synthesized; also called WT; SMC5/6 localization factor 1 tBRCT; source: E. coli BL21 Rosetta (DE3), purified (Ni-NTA, heparin, gel filtration)
T2 sequence (looked up): T1 sequence (Q9BQI6 1-199)

SLF1^tBRCT K56A = biological target: T3, SLF1^tBRCT K56A (UniProt Q9BQI6 1-199, K56A); test: as above; conditions: both partners purified
T3 construct: SMC5/6 localization factor 1 (SLF1), tandem BRCT repeat, residues 1-199, with K56A; also called K56A-substituted SLF1^tBRCT; source: E. coli BL21 Rosetta (DE3), purified (same protocol as the wild type)
T3 sequence (looked up): T1 sequence (Q9BQI6 1-199) with K56A

SLF1^tBRCT I189A = biological target: T4, SLF1^tBRCT I189A (UniProt Q9BQI6 1-199, I189A); test: as above; conditions: both partners purified
T4 construct: SMC5/6 localization factor 1 (SLF1), tandem BRCT repeat, residues 1-199, with I189A; source: E. coli BL21 Rosetta (DE3), purified (same protocol as the wild type)
T4 sequence (looked up): T1 sequence (Q9BQI6 1-199) with I189A

SLF1^tBRCT L142A = biological target: T5, SLF1^tBRCT L142A (UniProt Q9BQI6 1-199, L142A); test: as above; conditions: both partners purified
T5 construct: SMC5/6 localization factor 1 (SLF1), tandem BRCT repeat, residues 1-199, with L142A; source: E. coli BL21 Rosetta (DE3), purified (same protocol as the wild type)
T5 sequence (looked up): T1 sequence (Q9BQI6 1-199) with L142A

SLF1^tBRCT R50A = biological target: T6, SLF1^tBRCT R50A (UniProt Q9BQI6 1-199, R50A); test: as above; conditions: both partners purified
T6 construct: SMC5/6 localization factor 1 (SLF1), tandem BRCT repeat, residues 1-199, with R50A; also called R50A-substituted SLF1^tBRCT; source: E. coli BL21 Rosetta (DE3), purified (same protocol as the wild type)
T6 sequence (looked up): T1 sequence (Q9BQI6 1-199) with R50A

- binding to SLF1^tBRCT by ITC (in words) [1]: undetectable
Molecule: Rad18-pS442-4A: Rad18-pS442 peptide with I446A/I447A/L450A/L451A substitutions (SDSCNS[pS]SSDAARDAAE)

- Kd [1]: 15 ± 3 nM
Molecule: CC[C@H](C)[C@H](NC(=O)[C@H](CC(=O)O)NC(=O)[C@H](COP(=O)(O)O)NC(=O)[C@H](CO)NC(=O)[C@H](COP(=O)(O)O)NC(=O)[C@H](CO)NC(=O)[C@H](CC(N)=O)NC(=O)[C@H](CS)NC(=O)[C@H](CO)NC(=O)[C@H](CC(=O)O)NC(=O)[C@@H](N)CO)C(=O)N[C@H](C(=O)N[C@@H](CCCNC(=N)N)C(=O)N[C@@H](CC(=O)O)C(=O)N[C@@H](CC(C)C)C(=O)N[C@@H](CC(C)C)C(=O)N[C@@H](CCC(=O)O)C(=O)O)[C@@H](C)CC [Rad18-2P] (H-SDSCNS[pS]S[pS]DIIRDLLE-OH)

- dH [2]: -1.79 kcal/mol
- stoichiometry N [2]: 1.13
Molecule: singularly phosphorylated Rad18-pS442 peptide (from UniProt Q9NS91 436-452)

- Kd [1]: 19700 ± 6460 nM
Molecule: CC[C@H](C)[C@H](NC(=O)[C@H](CC(=O)O)NC(=O)[C@H](COP(=O)(O)O)NC(=O)[C@H](CO)NC(=O)[C@H](CO)NC(=O)[C@H](CO)NC(=O)[C@H](CC(N)=O)NC(=O)[C@H](CS)NC(=O)[C@H](CO)NC(=O)[C@H](CC(=O)O)NC(=O)[C@@H](N)CO)C(=O)N[C@H](C(=O)N[C@@H](CCCNC(=N)N)C(=O)N[C@@H](CC(=O)O)C(=O)N[C@@H](CC(C)C)C(=O)N[C@@H](CC(C)C)C(=O)N[C@@H](CCC(=O)O)C(=O)O)[C@@H](C)CC [Rad18-pS444] (H-SDSCNSSS[pS]DIIRDLLE-OH)

- Kd [1]: 156 ± 5 nM
Molecule: CC[C@H](C)[C@H](NC(=O)[C@H](CC(=O)O)NC(=O)[C@H](CO)NC(=O)[C@H](CO)NC(=O)[C@H](COP(=O)(O)O)NC(=O)[C@H](CO)NC(=O)[C@H](CC(N)=O)NC(=O)[C@H](CS)NC(=O)[C@H](CO)NC(=O)[C@H](CC(=O)O)NC(=O)[C@@H](N)CO)C(=O)N[C@H](C(=O)N[C@@H](CCCNC(=N)N)C(=O)N[C@@H](CC(=O)O)C(=O)N[C@@H](CC(C)C)C(=O)N[C@@H](CC(C)C)C(=O)N[C@@H](CCC(=O)O)C(=O)O)[C@@H](C)CC [Rad18-pS442] (H-SDSCNS[pS]SSDIIRDLLE-OH)

- binding to SLF1^tBRCT by ITC (in words) [1]: undetectable
Molecule: Rad18-pS442-2IA: Rad18-pS442 peptide with I446A/I447A substitution (SDSCNS[pS]SSDAARDLLE)

- dH [2]: -1.1 kcal/mol
- stoichiometry N [2]: 1.28
Molecule: Rad18-pS444 peptide (from UniProt Q9NS91 436-452)

- binding to SLF1^tBRCT by ITC (in words) [1]: undetectable
Molecule: Rad18-NP: unphosphorylated Rad18 peptide of the Ser442/Ser444-containing region (SDSCNSSSSDIIRDLLE)

- Kd [3]: 27500 nM
- dH [3]: -0.75 kcal/mol
- stoichiometry N [3]: 1.12
Molecule: GAAYDI[pS]QVFPFAKKK (source: synthetic peptide) [BRCTide, phosphopeptide optimized for binding to the BRCA1 tBRCT]

- Kd [3]: 450 nM
- dH [3]: -2.39 kcal/mol
- stoichiometry N [3]: 1.67
B1: Rad18-pS442-2LA peptide (L450A/L451A) (peptide, UniProt Q9NS91 436-452, looked up)
peptide: SDSCNS[pS]SSDIIRDAAE
notes: Rad18, human, residues 436-452, with L450A/L451A; source: synthetic peptide

- Kd [3]: 77 nM
- dH [3]: -1.11 kcal/mol
- stoichiometry N [3]: 1.52
B2: Rad18-2P-D449A peptide (peptide, UniProt Q9NS91 436-452, looked up)
peptide: SDSCNS[pS]S[pS]DIIRALLE
notes: Rad18, human, residues 436-452, with D449A; source: synthetic peptide

- dH [2]: -4.04 kcal/mol
- stoichiometry N [2]: 1.28
- Kd (SLF1^tBRCT K56A): 2210 nM
- dH (SLF1^tBRCT K56A): -0.86 kcal/mol
- stoichiometry N (SLF1^tBRCT K56A): 1.16
- Kd (SLF1^tBRCT I189A): 31 nM
- dH (SLF1^tBRCT I189A): -2.98 kcal/mol
- stoichiometry N (SLF1^tBRCT I189A): 1.21
- Kd (SLF1^tBRCT L142A): 116 nM
- dH (SLF1^tBRCT L142A): -5.07 kcal/mol
- stoichiometry N (SLF1^tBRCT L142A): 1.31
- Kd (SLF1^tBRCT R50A): 160 nM
- dH (SLF1^tBRCT R50A): -3.82 kcal/mol
- stoichiometry N (SLF1^tBRCT R50A): 1.45
B3: Rad18 peptide containing phosphorylated Ser442 and Ser444 (Rad18-2P) (peptide, UniProt Q9NS91 436-452, looked up)
peptide: SDSCNS[pS]S[pS]DIIRDLLE
notes: Rad18, human, Ser442/Ser444-containing region, residues 436-452; also called dually phosphorylated Rad18 peptide; source: synthetic peptide

- Kd [3]: 44 nM
- dH [3]: -2.54 kcal/mol
- stoichiometry N [3]: 1.76
B4: Rad18-2P-N440A peptide (peptide, UniProt Q9NS91 436-452, looked up)
peptide: SDSCAS[pS]S[pS]DIIRDLLE
notes: Rad18, human, residues 436-452, with N440A; source: synthetic peptide

- Kd [3]: 38 nM
- dH [3]: -2.15 kcal/mol
- stoichiometry N [3]: 1.63
B5: Rad18-2P-R448A peptide (peptide, UniProt Q9NS91 436-452, looked up)
peptide: SDSCNS[pS]S[pS]DIIADLLE
notes: Rad18, human, residues 436-452, with R448A; source: synthetic peptide

— paper PMC10598736, “Structural insights into Rad18 targeting by the SLF1 BRCT domains” (The Journal of Biological Chemistry, 2023)
